Laboratory results published in IntAct's records for PubMed 31169361.

B1: Nuclear factor erythroid 2-related factor 2 (Mus musculus), Q60795 (parent)
chain: MMDLELPPPGLQSQQDMDLIDILWRQDIDLGVSREVFDFSQRQKDYELEKQKKLEKERQEQLQKEQEKAFFAQFQLDEETGEFLPIQPAQHIQTDTSGSASYSQVAHIPKQDALYFEDCMQLLAETFPFVDDHESLALDIPSHAESSVFTAPHQAQSLNSSLEAAMTDLSSIEQDMEQVWQELFSIPELQCLNTENKQLADTTAVPSPEATLTEMDSNYHFYSSISSLEKEVGNCGPHFLHGFEDSFSSILSTDDASQLTSLDSNPTLNTDFGDEFYSAFIAEPSDGGSMPSSAAISQSLSELLDGTIEGCDLSLCKAFNPKHAEGTMEFNDSDSGISLNTSPSRASPEHSVESSIYGDPPPGFSDSEMEELDSAPGSVKQNGPKAQPAHSPGDTVQPLSPAQGHSAPMRESQCENTTKKEVPVSPGHQKAPFTKDKHSSRLEAHLTRDELRAKALHIPFPVEKIINLPVDDFNEMMSKEQFNEAQLALIRDIRRRGKNKVAAQNCRKRKLENIVELEQDLGHLKDEREKLLREKGENDRNLHLLKRRLSTLYLEVFSMLRDEDGKPYSPSEYSLQQTRDGNVFLVPKSKKPDTKKN
B2: Astrotactin-1 (Mus musculus), Q61137-2 (parent)
chain: MALAGLCALFACCWGPAAVLATAAGDVDPSKELECKLKSITVSALPFLRENDLSIMHSPSASEPKLLFSVRNDFPGEMVVVDDLENTELPYFVLEISGNTEDIPLVRWRQQWLENGTLLFHIHHQDGAPSLPGQDPTEEPQHESAEEELRILHISVMGGMIALLLSILCLVMILYTRRRWCKRRRVPQPQKSASAEAANEIHYIPSVLIGGHGRESLRNARVQGHNSSGTLSIRETPILDGYEYDITDLRHHLQRECMNGGEDFASQVTRTLDSLQGCNEKSGMDLTPGSDNAKLSLMNKYKDNIIATSPVDSNHQQATLLSHTSSSQRKRINNKARAGSAFLNPEGDSSTEAENDPQLTFYTDPSRSRRRSRVGSPRSPVNKTTLTLISVTSCVIGLVCSSHVSCPLVVKITLHVPEHLIADGSRFILLEGSQLDASDWLNPAQVVLFSQQNSSGPWAMDLCARRLLDPCEHQCDPETGECLCYEGYMKDPVHKHLCIRNEWGTNQGPWPYTIFQRGFDLVLGEQPSDKIFRFTYTLGEGMWLPLSKSFVIPPAELAINPSAKCKTDMTVMEDAVEVREELMTSSSFDSLEVLLDSFGPVRDCSKDNGGCSKNFRCISDRKLDSTGCVCPSGLSPMKDSSGCYDRHIGVDCSDGFNGGCEQLCLQQMAPFPEDPTLYNILMFCGCIEDYKLGVDGRSCQLVTETCPEGGDCGESREVPMNQTLFGEMFFGYNNQSKEVATGQVLKGTFRQNNFARGLDQQLPDGLVVASVPLENQCLEEISEPTPDPDFLTGMVNFSEVSGYPVLQHWKVRSVMYHIKLNQAAISQAFSNALHSLDGATSRADFVALLDQFGNHYIQEAVYGFEESCSIWYPNKQVQRRLWLEYEDISKGNSPSDESEERERDPKVLTFPEYIASLSDSGTKRMAAGVRMECQSKGRCPSSCPLCHVTSSPETPAEPVLLEVTRASPIYELVTNNQTQRLLQEATMSSLWCSGTGDVIEDWCRCDSTAFGADGLPTCAPLPQPVLRLSTVHEPSSNLVVLEWEHSEPPIGVQIVDYLIRQEKVTDRMDHSKVETETVLSFVDDIISGAKAPCAMPSQVPDKQLTTISLIIRCLEPDTIYMFTLWGVDNTGRRSRPSDVIVKTPCPVVDDVKAQEIADKIYNLFNGYTSGKEQQTAYNTLLDLGSPTLHRVLYHYNQHYESFGEFTWRCEDELGPRKAGLILSQLGDLSSWCNGLLQEPKISLRRGSLKYLGCRYSEIKPYGLDWSELSRDLRKTCEEQTLSVPYNDYGDSKDI
B3: Astrotactin-1 (Homo sapiens), O14525-2 (parent)
chain: MALAGLCALLACCWGPAAVLATAAGDVDPSKELECKLKSITVSALPFLRENDLSIMHSPSASEPKLLFSVRNDFPGEMVVVDDLENTELPYFVLEISGNTEDIPLVRWRQQWLENGTLLFHIHHQDGAPSLPGQDPTEEPQHESAEEELRILHISVMGGMIALLLSILCLVMILYTRRRWCKRRRVPQPQKSASAEAANEIHYIPSVLIGGHGRESLRNARVQGHNSSGTLSIRETPILDGYEYDITDLRHHLQRECMNGGEDFASQVTRTLDSLQGCNEKSGMDLTPGSDNAKLSLMNKYKDNIIATSPVDSNHQQATLLSHTSSSQRKRINNKARAGSAFLNPEGDSGTEAENDPQLTFYTDPSRSRRRSRVGSPRSPVNKTTLTLISITSCVIGLVCSSHVNCPLVVKITLHVPEHLIADGSRFILLEGSQLDASDWLNPAQVVLFSQQNSSGPWAMDLCARRLLDPCEHQCDPETGECLCYEGYMKDPVHKHLCIRNEWGTNQGPWPYTIFQRGFDLVLGEQPSDKIFRFTYTLGEGMWLPLSKSFVIPPAELAINPSAKCKTDMTVMEDAVEVREELMTSSSFDSLEVLLDSFGPVRDCSKDNGGCSKNFRCISDRKLDSTGCVCPSGLSPMKDSSGCYDRHIGVDCSDGFNGGCEQLCLQQMAPFPDDPTLYNILMFCGCIEDYKLGVDGRSCQLITETCPEGSDCGESRELPMNQTLFGEMFFGYNNHSKEVAAGQVLKGTFRQNNFARGLDQQLPDGLVVATVPLENQCLEEISEPTPDPDFLTGMVNFSEVSGYPVLQHWKVRSVMYHIKLNQVAISQALSNALHSLDGATSRADFVALLDQFGNHYIQEAIYGFEESCSIWYPNKQVQRRLWLEYEDISKGNSPSDESEERERDPKVLTFPEYITSLSDSGTKHMAAGVRMECHSKGRCPSSCPLCHVTSSPDTPAEPVLLEVTKAAPIYELVTNNQTQRLLQEATMSSLWCSGTGDVIEDWCRCDSTAFGADGLPTCAPLPQPVLRLSTVHEPSSTLVVLEWEHSEPPIGVQIVDYLLRQEKVTDRMDHSKVETETVLSFVDDIISGAKSPCAMPSQVPDKQLTTISLIIRCLEPDTIYMFTLWGVDNTGRRSRPSDVIVKTPCPVVDDVKAQEIADKIYNLFNGYTSGKEQQTAYNTLLDLGSPTLHRVLYHYNQHYESFGEFTWRCEDELGPRKAGLILSQLGDLSSWCNGLLQEPKISLRRSSLKYLGCRYSEIKPYGLDWAELSRDLRKTCEEQTLSIPYNDYGDSKEI

Variants of: B1
Settings: with keap1_mouse Keap1, Q9Z2X8
Target sequence in this assay (Q9Z2X8 whole entry): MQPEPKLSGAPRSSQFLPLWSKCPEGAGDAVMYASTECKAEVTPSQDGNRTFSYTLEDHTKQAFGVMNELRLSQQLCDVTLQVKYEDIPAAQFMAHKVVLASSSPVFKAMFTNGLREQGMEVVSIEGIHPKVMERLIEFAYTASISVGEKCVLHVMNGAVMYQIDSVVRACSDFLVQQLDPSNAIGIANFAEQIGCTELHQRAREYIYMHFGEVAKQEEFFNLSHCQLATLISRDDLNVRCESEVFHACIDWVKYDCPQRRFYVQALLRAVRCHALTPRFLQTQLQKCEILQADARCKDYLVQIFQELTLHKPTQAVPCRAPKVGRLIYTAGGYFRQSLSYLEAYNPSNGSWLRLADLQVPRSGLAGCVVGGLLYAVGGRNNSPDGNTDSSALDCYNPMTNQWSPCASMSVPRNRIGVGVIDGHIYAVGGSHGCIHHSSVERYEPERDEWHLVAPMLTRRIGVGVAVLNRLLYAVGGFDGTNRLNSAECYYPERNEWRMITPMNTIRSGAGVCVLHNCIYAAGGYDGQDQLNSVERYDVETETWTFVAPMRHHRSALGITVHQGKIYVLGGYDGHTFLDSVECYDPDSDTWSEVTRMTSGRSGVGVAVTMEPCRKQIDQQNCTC

Row | effect of a mutation on the interaction | Variant
1 | disrupting interaction strength | D77A;E79A

Variants of: B2
Settings: with keap1_mouse Keap1, Q9Z2X8
Target sequence in this assay (Q9Z2X8 whole entry): as above

Row | effect of a mutation on the interaction | Variant
2 | with no effect | D476A;E478A

Variants of: B3
Settings: with keap1_human KEAP1, Q14145
keap1_human KEAP1, Q14145, sequence (Q14145 whole entry): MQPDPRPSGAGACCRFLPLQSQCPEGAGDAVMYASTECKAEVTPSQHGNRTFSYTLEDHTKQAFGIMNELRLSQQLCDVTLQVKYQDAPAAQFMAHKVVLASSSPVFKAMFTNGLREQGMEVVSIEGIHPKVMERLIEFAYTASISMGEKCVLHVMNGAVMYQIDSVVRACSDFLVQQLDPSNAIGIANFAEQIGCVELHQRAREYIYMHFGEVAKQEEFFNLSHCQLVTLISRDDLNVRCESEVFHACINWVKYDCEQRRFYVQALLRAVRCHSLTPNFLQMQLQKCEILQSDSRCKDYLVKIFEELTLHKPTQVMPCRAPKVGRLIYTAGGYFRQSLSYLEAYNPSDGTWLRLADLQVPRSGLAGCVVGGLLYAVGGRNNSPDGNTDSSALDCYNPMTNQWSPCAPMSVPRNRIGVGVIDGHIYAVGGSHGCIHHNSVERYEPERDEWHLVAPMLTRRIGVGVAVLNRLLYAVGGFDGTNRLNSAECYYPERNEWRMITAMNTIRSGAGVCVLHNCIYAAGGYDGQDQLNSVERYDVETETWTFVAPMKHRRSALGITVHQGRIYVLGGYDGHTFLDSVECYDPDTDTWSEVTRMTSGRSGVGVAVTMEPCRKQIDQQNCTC

Row | effect of a mutation on the interaction | Variant
3 | with no effect | C482S
4 | increasing interaction strength | C482S;C484S
5 | with no effect | C484S
6 | with no effect | C475L
7 | decreasing interaction strength | C475S
8 | disrupting interaction strength | D476A;E478A
9 | decreasing interaction strength | C475S;C484S
10 | with no effect | C475S;C482S

Variants of: B3
Settings: with keap1_human KEAP1, Q14145
Remark: another data set of the same source

Row | effect of a mutation on the interaction | Variant
11 | decreasing interaction strength | D476A;E478A
